Measurements: patent US20100015137A1 (IMMUNEX, published 2010)

Molecular target: T1, full length human TRAIL receptor (TRAIL-R) (human, UniProt O14763 56-440)
T1 construct: The signal peptide is only predicted (residues 1-51)
Assay: flow cytometry on transfected CV-1/EBNA cells, LZ-TRAIL at 5 µg/ml
Procedure: CV-1/EBNA cells were co-transfected with pDC409-TRAIL-R together with pDC409-CrmA, or with pDC409-CrmA alone. The cells were cultured in DMEM supplemented with 10% fetal bovine serum, penicillin, streptomycin, and glutamine. […] The cytometric analysis was conducted on a FACscan (Beckton Dickinson, San Jose, Calif.).

B1: LZ-TRAIL (leucine zipper peptide fused to the N-terminus of a soluble human TRAIL polypeptide) (ligand, UniProt P50591 95-281, looked up)
chain: TSEETISTVQEKQQNISPLVRERGPQRVAAHITGTRGRSNTLSSPNSKNEKALGRKINSWESSRSGHSFLSNLHLRNGELVIHEKGFYYIYSQTYFRFQEEIKENTKNDKQMVQYIYKYTSYPDPILLMKSARNSCWSKDAEYGLYSIYQGGIFELKENDRIFVSVTNEHLIDMDHEASFFGAFLVG
notes: range 95-281; also called LZ-huTRAIL; not shown: modified leucine zipper that allows for trimerization
binding result: binds
